{"source": "paper PMC5491494", "about": "“Functional and dynamic polymerization of the ALS-linked protein TDP-43 antagonizes its pathologic aggregation” (Nature Communications, 2017)", "proteins": {"B1": {"name": "wild-type superoxide dismutase 1 (SOD1), endogenous mouse (enzyme)", "chain": "not shown", "notes": "superoxide dismutase 1, mouse, endogenous in brain slices; source: endogenous, mouse brain slices"}}, "biological_target": "the molecule itself", "test": "cross-linking; in situ 1 mM DSG on minced human brain tissue (cerebellum, motor cortex) or mouse organotypic brain slices (control or 0.25 mM arsenite for 2 h), 37 °C, 30 min, quenched with 20 mM Tris; nucleo-cytoplasmic fractionation; immunoblot"}
{"protein": "B1", "values": [{"measurement": "stoichiometry N", "result": 2}]}
